The source of these data is the supplement of paper PMC10567573.

This data set is described as follows: protein stability index of a GFP-peptide fusion (GPS, HEK-293T) (PSI 1-6); higher = more stable. The conditions noted are these: c terminus: a fixed tail appended.

± gives the standard deviation.
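Also: 24-mer peptide tiles fused after GFP, lentivirally expressed, FACS-sorted into six equal bins by GFP/DsRed ratio, decoded by Illumina sequencing, PSI is the read-weighted mean bin number.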

Take LELLLDASALTLVLGGRRLRRAWF [SCNN1D]: the protein stability index is 2.94 ± 0.81 (treatment: DMSO) and 2.4 ± 0.58 (treatment: MLN4924 1 uM, 8 h).

The sequence LERQNQEYQVLLDVKARLEGEIAT [KRT36] showed a protein stability index (treatment: DMSO) of 3.93 ± 0.077 and a protein stability index (treatment: MLN4924 1 uM, 8 h) of 4.02 ± 0.2.

LESLRTAQKTALLQDGRRKVHYLF [DPCD]: the protein stability index by setting is: (treatment: DMSO) 2.19 ± 0.22; (treatment: MLN4924 1 uM, 8 h) 2.45 ± 0.37.

Consider LESSEELLETANQTLQAMDSEDFP [FSD1], for which the protein stability index was found to be 5.4 ± 0.19 (treatment: DMSO) and 5.57 ± 0.1 (treatment: MLN4924 1 uM, 8 h).

Take LETMARNEVIADINCKGRSKSNLG [OSBPL1A]: the protein stability index runs as follows: (treatment: DMSO) 4.46 ± 0.39; (treatment: MLN4924 1 uM, 8 h) 4.38 ± 0.39.

Consider LFAIANGFSPSYEFFAVTRFLVGM [SLC22A15], for which the protein stability index by setting is: (treatment: DMSO) 3.06 ± 0.34; (treatment: MLN4924 1 uM, 8 h) 2.57 ± 1.3.

For the sequence LFDMCGISEAQLKDRETSKVIYDF [WASL], the protein stability index runs as follows: (treatment: DMSO) 2.58 ± 0.16; (treatment: MLN4924 1 uM, 8 h) 2.7 ± 0.3.

As for LFFPVIYDVKYLMKSCKNLKGGLQ [CNOT7], the protein stability index runs as follows: (treatment: DMSO) 2.72 ± 0.35; (treatment: MLN4924 1 uM, 8 h) 2.5 ± 0.28.

With LFGDAFAASPGEAPAASEGAAAPA [SNAP91], the protein stability index (treatment: DMSO) was 5.07 ± 0.3 and the protein stability index (treatment: MLN4924 1 uM, 8 h) came out at 5.15 ± 0.15.

Consider LFPQWHLPIKIAAIIASLTFLYTL [STEAP1], for which the protein stability index is, setting by setting: (treatment: DMSO) 3.39 ± 0.8; (treatment: MLN4924 1 uM, 8 h) 3.13 ± 0.48.

In the case of LGEEWSLHKIYLCQSGYFSSMFSG [GMCL1], the protein stability index by setting is: (treatment: DMSO) 2.72 ± 1.1; (treatment: MLN4924 1 uM, 8 h) 3.4 ± 0.97.

For LGETPENSNLEEPLNPKPHKKKSP [ZNF449], the protein stability index was determined as 5.41 ± 0.38 (treatment: DMSO) and 5.47 ± 0.12 (treatment: MLN4924 1 uM, 8 h).

The sequence LGGEQAEEKAFESVIEPVQESSFR [MIA2] came in with a protein stability index (treatment: DMSO) of 5.16 ± 0.54 and a protein stability index (treatment: MLN4924 1 uM, 8 h) of 5.44 ± 0.1.

With LGLGTRESHSCPQQVPMPPGQEAQ [NEK8], the protein stability index amounted to 4.98 ± 0.19 (treatment: DMSO) and 4.87 ± 0.097 (treatment: MLN4924 1 uM, 8 h).

On to LGPCVVGYGIYYFIYSTWKGRTIY [SAT2], for which the protein stability index is 2.97 ± 0.28 (treatment: DMSO) and 2.97 ± 0.51 (treatment: MLN4924 1 uM, 8 h).

In turn, LHEALQDYEAGQHMEDPRRAGKML [ESRRG] yielded a protein stability index (treatment: DMSO) of 4.74 ± 0.29 and a protein stability index (treatment: MLN4924 1 uM, 8 h) of 4.68 ± 0.38.

Regarding LHRESSNFDSIYICPSTFACAQLA [HDAC6], the protein stability index was 2.15 ± 0.46 (treatment: DMSO) and 2.11 ± 0.16 (treatment: MLN4924 1 uM, 8 h).

Take LHYFPFFLMGRVLYFHHYFPAMLF [POMT2]: the protein stability index came out at 3.09 ± 0.93 (treatment: DMSO) and 2.58 ± 0.52 (treatment: MLN4924 1 uM, 8 h).

Take LIKLGLERFHGVGILGFNSAEWFI [ACSBG2]: the protein stability index amounted to 1.91 ± 0.25 (treatment: DMSO) and 2.13 ± 0.65 (treatment: MLN4924 1 uM, 8 h).

In the case of LINHKKAEDTEKKDEPSKYNQQQA [CEP70], the protein stability index runs as follows: (treatment: DMSO) 5.4 ± 0.21; (treatment: MLN4924 1 uM, 8 h) 5.26 ± 0.38.

LIQHQRIHKGEKPYQCSQCSKSYS [ZSCAN9]: the protein stability index came to 2.89 ± 0.3 (treatment: DMSO) and 3.26 ± 0.26 (treatment: MLN4924 1 uM, 8 h).

For LKPLCGCHSFAAAADGPTVCCNPY [SMAD6], the protein stability index (treatment: DMSO) turned out to be 2.75 ± 0.5 and the protein stability index (treatment: MLN4924 1 uM, 8 h) worked out at 2.92 ± 0.39.

As for LKYENDYPSVILRDPLQTDTLQND [ETS1], the protein stability index by setting is: (treatment: DMSO) 4.2 ± 0.31; (treatment: MLN4924 1 uM, 8 h) 4.53 ± 0.34.

Consider LLFSDKNVNSNLITWNRVVLLHGP [TRIP13], for which the protein stability index by setting is: (treatment: DMSO) 2.91 ± 0.79; (treatment: MLN4924 1 uM, 8 h) 2.28 ± 0.53.

LLGRERDRVQVERDGLAEDLAALK [PRPH]: the protein stability index is, setting by setting: (treatment: DMSO) 4.2 ± 0.26; (treatment: MLN4924 1 uM, 8 h) 4.37 ± 0.18.

Regarding LLPDGRHAVVEVEDVPLAAKLVDL [TAF7L], the protein stability index stood at 4.28 ± 0.3 (treatment: DMSO) and 4.22 ± 0.18 (treatment: MLN4924 1 uM, 8 h).

LLQADREHLPVKPDTMEKLRTHID [DENND6A]: the protein stability index reads like this: (treatment: DMSO) 3.86 ± 0.36; (treatment: MLN4924 1 uM, 8 h) 3.92 ± 0.12.

Sequence LLSIGPELPKPEVISQLEQGTELW [ZNF8] gave a protein stability index (treatment: DMSO) of 4.19 ± 0.28 and a protein stability index (treatment: MLN4924 1 uM, 8 h) of 3.54 ± 0.099.

Take LMRHGMEKIWRPNRVFSLQDLCCR [RAB40C]: the protein stability index (treatment: DMSO) was determined as 2.74 ± 0.14 and the protein stability index (treatment: MLN4924 1 uM, 8 h) came to 2.71 ± 0.27.

Consider LNFKAEPESETSILLSWTPPRSDT [PTPRD], for which the protein stability index (treatment: DMSO) is 3.3 ± 0.36 and the protein stability index (treatment: MLN4924 1 uM, 8 h) was found to be 3.45 ± 0.28.

Take LNKPALQAQPLRTTSTLASSLPGH [EHMT1]: the protein stability index came out at 3.81 ± 0.14 (treatment: DMSO) and 3.91 ± 0.28 (treatment: MLN4924 1 uM, 8 h).

Consider LNQGSVFQEYDTDCEVFRQRFRQF [ZNF449], for which the protein stability index runs as follows: (treatment: DMSO) 2.98 ± 0.27; (treatment: MLN4924 1 uM, 8 h) 3.19 ± 0.12.

Take LPGLAGPSGEMVKSTTSLTSSSTS [MLH1]: the protein stability index is 4.83 ± 0.17 (treatment: DMSO) and 4.82 ± 0.058 (treatment: MLN4924 1 uM, 8 h).

Consider LPLLRQTAGKVLAHFYGVKLEGKV [ESRRA], for which the protein stability index by setting is: (treatment: DMSO) 2.26 ± 0.31; (treatment: MLN4924 1 uM, 8 h) 2.11 ± 0.18.

LPNTLLRKDKDVARLQDFQELELV [ANKRD40]: the protein stability index came to 3.76 ± 0.11 (treatment: DMSO) and 3.66 ± 0.29 (treatment: MLN4924 1 uM, 8 h).

As for LPREEEIVFPEKLNGSVLPGSGAP [ADAMTS4], the protein stability index turned out to be 4.49 ± 0.45 (treatment: DMSO) and 4.63 ± 0.46 (treatment: MLN4924 1 uM, 8 h).
